Laboratory results taken from PMC3401101.
Blank lines part the entries; values can stand above or below the molecule they belong to.

How the values were obtained:
DNA topoisomerase IIIα [1] = target: T1, DNA topoisomerase IIIα (UniProt Q13472)
T1 sequence: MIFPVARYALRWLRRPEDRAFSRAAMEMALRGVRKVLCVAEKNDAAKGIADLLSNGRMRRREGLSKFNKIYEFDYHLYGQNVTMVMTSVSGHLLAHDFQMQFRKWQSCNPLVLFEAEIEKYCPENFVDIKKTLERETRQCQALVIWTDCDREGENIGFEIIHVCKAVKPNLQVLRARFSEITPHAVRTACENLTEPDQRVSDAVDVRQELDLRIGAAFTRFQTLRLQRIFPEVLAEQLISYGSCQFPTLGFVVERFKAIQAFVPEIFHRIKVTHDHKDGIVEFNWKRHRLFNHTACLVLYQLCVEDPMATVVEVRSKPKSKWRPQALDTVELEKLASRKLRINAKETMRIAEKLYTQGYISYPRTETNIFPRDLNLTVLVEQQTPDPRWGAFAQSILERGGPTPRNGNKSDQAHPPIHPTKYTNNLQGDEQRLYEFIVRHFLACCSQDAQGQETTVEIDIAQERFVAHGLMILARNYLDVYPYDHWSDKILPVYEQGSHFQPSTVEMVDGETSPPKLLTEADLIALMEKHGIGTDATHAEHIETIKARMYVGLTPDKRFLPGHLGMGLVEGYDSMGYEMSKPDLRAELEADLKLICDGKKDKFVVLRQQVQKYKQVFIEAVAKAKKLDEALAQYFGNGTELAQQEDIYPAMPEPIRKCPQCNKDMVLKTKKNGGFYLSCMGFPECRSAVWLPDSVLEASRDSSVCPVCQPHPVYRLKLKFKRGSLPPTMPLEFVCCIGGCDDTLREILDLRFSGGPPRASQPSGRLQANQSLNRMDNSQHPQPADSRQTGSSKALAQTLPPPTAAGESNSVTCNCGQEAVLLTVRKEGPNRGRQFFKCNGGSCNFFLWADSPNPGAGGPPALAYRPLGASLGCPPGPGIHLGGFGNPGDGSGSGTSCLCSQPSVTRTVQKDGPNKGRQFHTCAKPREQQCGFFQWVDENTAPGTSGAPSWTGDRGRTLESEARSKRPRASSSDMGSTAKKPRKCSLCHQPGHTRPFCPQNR

DNA topoisomerase IIIα [2] = target: T1, DNA topoisomerase IIIα; remark: listed apart in the source

- TopoIIIα decatenase activity with BLM (33-66 nM) in the presence of RPA (100 nM), against TopoIIIα alone (DNA topoisomerase IIIα [1]): 1.5 fold
Molecule: BLM (from UniProt P54132 1-1417) (enzyme)

- TopoIIIα-mediated decatenation of single-stranded catenane with both BLM (17 nM) and RMI1 (75-150 nM) in the presence of RPA (100 nM), against TopoIIIα alone (DNA topoisomerase IIIα [2]): 30 fold
B1: RMI1 (natural protein)
chain: MNVTSIALRAETWLLAAWHVKVPPMWLEACINWIQEENNNVNLSQAQMNKQVFEQWLLTDLRDLEHPLLPDGILEIPKGELNGFYALQINSLVDVSQPAYSQIQKLRGKNTTNDLVTAEAQVTPKPWEAKPSRMLMLQLTDGIVQIQGMEYQPIPILHSDLPPGTKILIYGNISFRLGVLLLKPENVKVLGGEVDALLEEYAQEKVLARLIGEPDLVVSVIPNNSNENIPRVTDVLDPALGPSDEELLASLDENDELTANNDTSSERCFTTGSSSNTIPTRQSSFEPEFVISPRPKEEPSNLSIHVMDGELDDFSLEEALLLEETVQKEQMETKELQPLTFNRNADRSIERFSHNPNTTNNFSLTCKNGNNNWSEKNVSEQMTNEDKSFGCPSVRDQNRSIFSVHCNVPLAHDFTNKEKNLETDNKIKQTSSSDSHSLNNKILNREVVNYVQKRNSQISNENDCNLQSCSLRSSENSINLSIAMDLYSPPFVYLSVLMASKPKEVTTVKVKAFIVTLTGNLSSSGGIWSITAKVSDGTAYLDVDFVDEILTSLIGFSVPEMKQSKKDPLQYQKFLEGLQKCQRDLIDLCCLMTISFNPSLSKAMVLALQDVNMEHLENLKKRLNK
